These are literature values, as cited in PMC11139829.

Broadly, the Kd is a measure of binding affinity in units of concentration.

Several values for one entry are separate records, joined by “and”; a condition that tells them apart may be missing. Identical values can stand only once. Like-named read-outs stand apart in the source and are kept apart here.

Series [1] deals with β-clamp (Escherichia coli) (UniProt P0A988).
Series [2] shares this target. Briefly: SPR.
For series [3] the target is unchanged. Briefly: ITC. (Isothermal titration calorimetry measures the heat released or taken up as one component is titrated into another.)
Series [4] shares this target. Briefly: Fluorescence.
Series [5] has the same target. Briefly: SEC. In general terms: SEC sorts molecules by how far they enter the pores of the column.
Series [6] shares this target. Nature of the series: ITC. This is another data set of the same source.
The target is the same in series [7]. Briefly: ITC. This is another data set of the same source.

Chain of Pol III α (P10443 whole entry): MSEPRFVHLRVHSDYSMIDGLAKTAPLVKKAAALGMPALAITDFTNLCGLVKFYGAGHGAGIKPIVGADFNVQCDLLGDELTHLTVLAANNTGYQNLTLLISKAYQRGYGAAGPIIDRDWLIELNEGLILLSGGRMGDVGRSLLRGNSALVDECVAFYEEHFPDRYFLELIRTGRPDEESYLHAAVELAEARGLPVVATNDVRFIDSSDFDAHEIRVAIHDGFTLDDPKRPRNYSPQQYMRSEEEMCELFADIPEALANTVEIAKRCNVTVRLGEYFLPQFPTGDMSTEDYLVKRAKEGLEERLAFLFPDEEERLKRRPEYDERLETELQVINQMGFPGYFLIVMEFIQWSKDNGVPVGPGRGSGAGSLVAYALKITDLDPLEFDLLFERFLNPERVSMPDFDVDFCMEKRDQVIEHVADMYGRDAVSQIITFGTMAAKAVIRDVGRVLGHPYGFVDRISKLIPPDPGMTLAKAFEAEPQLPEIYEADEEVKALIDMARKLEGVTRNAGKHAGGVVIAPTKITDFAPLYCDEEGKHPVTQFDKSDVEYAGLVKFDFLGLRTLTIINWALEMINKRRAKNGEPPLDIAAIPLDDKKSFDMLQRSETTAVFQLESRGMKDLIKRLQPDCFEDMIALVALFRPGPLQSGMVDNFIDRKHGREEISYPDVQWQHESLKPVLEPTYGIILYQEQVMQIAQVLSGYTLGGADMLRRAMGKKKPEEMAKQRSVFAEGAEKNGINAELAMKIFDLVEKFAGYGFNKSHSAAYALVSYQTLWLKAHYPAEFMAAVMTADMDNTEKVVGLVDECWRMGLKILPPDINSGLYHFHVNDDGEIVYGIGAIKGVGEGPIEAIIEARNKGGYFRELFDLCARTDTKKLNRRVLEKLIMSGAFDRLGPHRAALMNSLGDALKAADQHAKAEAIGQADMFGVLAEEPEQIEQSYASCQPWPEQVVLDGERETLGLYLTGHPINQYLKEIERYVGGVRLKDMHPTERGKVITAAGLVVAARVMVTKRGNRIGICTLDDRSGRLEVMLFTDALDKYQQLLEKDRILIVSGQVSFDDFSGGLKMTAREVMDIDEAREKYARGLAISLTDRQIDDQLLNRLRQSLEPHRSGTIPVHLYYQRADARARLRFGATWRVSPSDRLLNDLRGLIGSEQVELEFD
Chain of UniProt P0A988 (P0A988 whole entry): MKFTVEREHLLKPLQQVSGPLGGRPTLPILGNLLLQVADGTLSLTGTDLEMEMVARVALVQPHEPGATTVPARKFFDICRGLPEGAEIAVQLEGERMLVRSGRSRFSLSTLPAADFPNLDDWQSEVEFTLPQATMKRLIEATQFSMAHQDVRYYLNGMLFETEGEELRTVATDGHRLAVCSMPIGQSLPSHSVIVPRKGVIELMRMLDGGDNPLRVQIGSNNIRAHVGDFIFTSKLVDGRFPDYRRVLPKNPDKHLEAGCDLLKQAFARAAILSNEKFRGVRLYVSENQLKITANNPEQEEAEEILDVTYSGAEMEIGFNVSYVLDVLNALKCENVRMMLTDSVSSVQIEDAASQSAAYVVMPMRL

For Pol II (from UniProt P21189), the Kd in series [1] is 120 nM; in series [2], 31.6 nM.

Regarding Pol II CBM peptide, the Kd in series [3] was 1700 nM; in series [4], 3500 nM.

As for Pol III core (from UniProt P10443), the Kd was less than 5 nM in series [5]; 51 nM and 50 nM in series [4].

Turning to Pol III α (from UniProt P10443), the equilibrium dissociation constant (Kd) in series [3] was 1500 nM; in series [5] it was 1200 nM; in series [2], 108 nM and 800 nM; in series [4], 110 nM.

With Pol III α + ε (from UniProt P10443), in series [5], the Kd is 300 nM.

Turning to Pol III α C-terminal CBM peptide, the Kd in series [3] is 1420 nM; in series [6] it was 3060 nM; in series [7], 3950 nM; in series [4], 3200 nM and 3000 nM.

As to Pol III α internal CBM peptide, the figures for the Kd in series [3] and in series [2] were greater than 15000 nM and 2700 nM, respectively.

As to Pol III ε peptide, the Kd in series [2] was 210000 nM.
